What all share (assay type): biochemical
The nature of data set [1]: Activity of ATG-2889 variants (positions 344/396) with D/L-luciferin. Particulars: substrate D/L-luciferin. From the text:
(§1) Additionally, several other amino acid substitutions, including those not considered to be conservative or semi-conservative, were made to ATG-2889, as shown below in Table 2.

Data set [2] in a line: Activity of ATG-2889 variants (positions 344/396) with CS0333. Particulars: substrate CS0333.
From the text: as §1

Data set [3] is described as follows: E. coli lysate activity of position 244/339 variants with CS0333 (FIG. 7). Particulars: E. coli lysates; Detection Reagent; 0.5 mM substrate; 1 mM ATP; 3 mins. The method, then:
FIG. 7 includes a representative graph assessing the activities of luciferase enzyme variants with amino acid substitutions at positions 244 and 339 of SEQ ID NO: 1 in the presence of 5,5-disubstituted luciferin analog substrate. Assays were prepared by combining overnight E. coli culture expressing enzymes with Detection Reagent+ATP+substrate (luciferin analog compounds CS0280, CS0333, CS0510, and CS0326), and luminescence was read at 3 mins. Reagent compositions included 50 μl lysate of the thermostable luciferase variant of Ppe variant of SEQ ID NO: 1, 0.5 mM substrate, and 1 mM ATP.

Data set [4] is described as follows: Kinetic analysis of ATG-2889 with CS0333 versus luciferin (FIG. 16B). How it is done: FIG. 16B provides similar results. […] The composition was incubated for 3 mins prior to quantification.
Data set [5] is described as follows: Effect of V300G, L305F, S306P on activity with CS0333 (FIG. 13). Particulars: 1 mM ATP; 100 nM to 1 mM substrate; Bright-Glo buffer. How it is done: FIG. 13 includes a representative graph of the effects of amino acid substitutions V300G, L305F, and S306P on enzyme activity with the CS0333 analog. Reagent compositions included […]+1 mM ATP+100 nM to 1 mM substrate in Bright-Glo™ buffer.

Data set [6] in a line: Activity of ATG-2671 with luciferin analogs. Particulars: data not shown. The method, then:
FIG. 15 includes representative graphs of kinetic activity of the luciferase enzyme variant ATG-2671 with D/L-luciferin. […] The composition was incubated for 3 mins and read on GloMax® Multi+platform.

A short description of data set [7]: Km for ATP with saturating substrate (FIG. 18). Particulars: with CS0333, relative to Ppe variant with luciferin. The method, then:
Reagent composition included 1 mM substrate, 100 fM-100 uM ATP (10-fold dilutions), and 0.1 mg/ml enzyme. […] Thus, the combination of the ATG-3674 luciferase enzyme variant with the thermostable CS0333 luciferin analog substrate will be effective in ATP detection/quantification assays.

Numbering of substitutions follows the chain as printed. Numbers in names are those of the source.

B1: ATG2889: SEQ ID NO: 12; H244W+T344A+I396K (protein)
chain: MADKNILYGPEPFYPLEDGTAGEQMFDALSRYAAIPGCIALTNAHTKENVLYEEFLKLSCRLAESFKKYGLKQNDTIAVCSENSLQFFLPVIASLYLGIIVAPVNDKYIERELIHSLGIVKPRIVFCSKNTFQKVLNVKSKLKSIETIIILDLNEDLGGYQCLNNFISQNSDSNLDVKKFKPYSFNRDDQVASIMFSSGTTGLPKGVMLTHKNIVARFSIAKDPTFGNAINPTSAILTVIPFHWGFGMMTTLGYFTCGFRVVLMHTFEEKLFLQSLQDYKVESTLLVPTLMAFLAKSALVEKYDLSHLKEIASGGAPLSKEIGEMVKKRFKLNFVRQGYGLTEATSAVLITPKGDAKPGSTGKIVPLHAVKVVDPTTGKILGPNEPGELYFKGPMKMKGYYNNEEATKAIIDNDGWLRSGDIAYYDNDGHFYIVDRLKSLIKYKGYQVAPAEIEGILLQHPYIVDAGVTGIPDEAAGELPAAGVVVQTGKYLNEQIVQDYVASQVSTAKWLRGGVKFLDEIPKGSTGKIDRKVLRQMLEKHTNGHHHHHHHH
With B1, the “activity with D/L-luciferin” value in data set [1] was determined as 5507240. In addition, in data set [2], the “activity with CS0333” value was determined as 679219. In addition, the “activity above background with CS0333” value in data set [3] is reported as “approximately 285 fold”. Further, the “Vmax with CS0333 lower than the Vmax for luciferin” value in data set [4] (Bright-Glo Buffer) is on record as 23.1 fold; in data set [4] (Detection Reagent buffer) it was 42.9 fold. Moreover, the “activity with CS0333 relative to Ppe variant (SEQ ID NO: 1)” value in data set [5] was “improved activity”.

B2: ATG-2671: luciferase enzyme variant ATG-2671 (G245A+L285I+G315A) (protein)
chain: B1 chain with W244H, G245A, L285I, V300C, G315A, A344T, K396I
Consider B2, for which the “activity with luciferin analogs” value in data set [6] is on record as “not active”.

B3: ATG-3674: SEQ ID NO: 25; H244W+T344A+I396K+S193A+N228D+L305F+S306P (protein)
chain: B1 chain with S193A, N228D, L305F, S306P
As for B3, in data set [7], the “Km values for ATP” value is given as “equivalent to improved Km values for ATP”.
